The values below come from US20190085081A1 (CANCER RESEARCH TECHNOLOGY, published 2019).

B5: CLEC14A with regions 97-108 of CD141 (receptor)
chain: not shown
notes: also called this mutant

In one assay the target is T1, murine CLEC14A-Fc (mouse, UniProt Q8VCP9 22-386, limits assumed).
T1 construct: Murine CLEC14A protein with a human Fc tag, made in HEK293T cells; also called CM; mCLEC14A-Fc; not shown: human Fc tag
T1 sequence (looked up): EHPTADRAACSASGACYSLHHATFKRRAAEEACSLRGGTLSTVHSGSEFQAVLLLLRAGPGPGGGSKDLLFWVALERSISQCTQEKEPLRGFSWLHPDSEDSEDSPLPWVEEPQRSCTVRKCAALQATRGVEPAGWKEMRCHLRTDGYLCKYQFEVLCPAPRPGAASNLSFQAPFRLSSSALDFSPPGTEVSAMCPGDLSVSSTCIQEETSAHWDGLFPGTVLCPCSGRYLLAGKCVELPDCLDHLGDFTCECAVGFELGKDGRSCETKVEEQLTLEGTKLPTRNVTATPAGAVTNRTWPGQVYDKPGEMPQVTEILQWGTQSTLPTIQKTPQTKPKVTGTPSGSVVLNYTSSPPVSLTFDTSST
As to the kind of experiment: ELISA, hybridoma supernatant on absorbed antigen. (In an ELISA, binding on a coated surface is turned into a signal by an enzyme label.)

The target of a further assay is T2, human CLEC14A-ECD-Fc (human, UniProt Q86T13 22-396).
T2 construct: also called CLEC14A-Fc; hCLEC14A-Fc; not shown: human Fc tag from the pcDNA3-Fc plasmid
T2 sequence: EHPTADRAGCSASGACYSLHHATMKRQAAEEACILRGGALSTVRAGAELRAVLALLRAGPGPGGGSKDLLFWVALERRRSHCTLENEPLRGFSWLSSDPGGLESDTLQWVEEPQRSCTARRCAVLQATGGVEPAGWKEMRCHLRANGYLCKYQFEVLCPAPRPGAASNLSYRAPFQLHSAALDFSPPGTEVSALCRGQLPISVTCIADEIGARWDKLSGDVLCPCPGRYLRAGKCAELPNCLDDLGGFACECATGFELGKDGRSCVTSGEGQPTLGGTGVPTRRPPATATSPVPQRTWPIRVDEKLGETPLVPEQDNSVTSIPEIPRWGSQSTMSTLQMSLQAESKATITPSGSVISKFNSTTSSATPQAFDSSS
Briefly: pre-incubation of CLEC14A-ECD-Fc with antibody before MMRN2 pull-down. How it is done:
Human CLEC14A-ECD-Fc was bound to protein A beads, blocked in 20% FCS and then incubated with each blocking condition. This was then added to lysates of HEK293T cells overexpressing full-length human MMRN2 with a His tag. Pre-incubating with CRT1, CRT4 and CRT5 decreased the levels of MMRN2 pulled down by CLEC14A-ECD-Fc.
To determine which CLEC14A monoclonal antibodies could inhibit the binding of MMRN2 to CLEC14A, CLEC14A-ECD-Fc was pre-incubated with increasing concentrations of mIgG1, or CR1-5, prior to incubation with lysates from HEK293T cells overexpressing MMRN2. Precipitates were then separated and probed for MMRN2 or CLEC14A-ECD-Fc. […] This confirms that antibodies C1, 4 and 5 bind CLEC14a on an epitope that is distinct from the one that C2 and 3 monoclonal antibodies bind and thus specifically block the MMRN2 interaction with CLEC14A.

The target of a further assay is T3, Chimera 5.
T3 construct: GFP fusion; also called CLEC14A with CTLD of CD141; CTLD of thrombomodulin, rest CLEC14A
T3 sequence (chain, as listed by the source mutant limits assumed): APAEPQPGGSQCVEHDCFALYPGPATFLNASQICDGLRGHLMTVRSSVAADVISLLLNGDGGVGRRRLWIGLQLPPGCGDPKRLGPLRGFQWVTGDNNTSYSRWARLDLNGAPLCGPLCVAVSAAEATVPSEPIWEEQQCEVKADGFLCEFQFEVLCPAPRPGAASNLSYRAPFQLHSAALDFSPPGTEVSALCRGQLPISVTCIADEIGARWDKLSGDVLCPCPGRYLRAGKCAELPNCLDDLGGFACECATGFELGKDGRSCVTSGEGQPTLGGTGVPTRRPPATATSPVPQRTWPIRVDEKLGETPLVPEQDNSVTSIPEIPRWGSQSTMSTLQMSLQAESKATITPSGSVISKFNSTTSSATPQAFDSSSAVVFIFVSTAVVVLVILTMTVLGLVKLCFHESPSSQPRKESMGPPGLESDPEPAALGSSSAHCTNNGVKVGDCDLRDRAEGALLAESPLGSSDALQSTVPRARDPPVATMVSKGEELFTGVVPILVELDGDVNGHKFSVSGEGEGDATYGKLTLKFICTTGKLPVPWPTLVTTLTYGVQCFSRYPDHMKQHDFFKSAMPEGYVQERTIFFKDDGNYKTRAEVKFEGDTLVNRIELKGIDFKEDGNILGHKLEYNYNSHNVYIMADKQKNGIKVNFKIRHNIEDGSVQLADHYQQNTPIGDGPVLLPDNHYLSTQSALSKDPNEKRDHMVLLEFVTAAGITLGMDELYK
Briefly: flow cytometry, HEK293T Chimera 5 GFP, GFP-positive cells gated (R1). In general terms: A flow cytometer gives signals particle by particle.

The target in assay [1] is B5. As to the kind of experiment: flow cytometry, HEK293T 97-108 Chimera GFP, GFP-positive cells gated (R1).
For assay [2], the target named is T4, wild type thrombomodulin with GFP tag (UniProt P07204 19-575).
T4 construct: whole, on cells; Expressed in HEK293T cells; also called WT CD141; CD141; not shown: C-terminal GFP tag
T4 sequence (P07204 19-575): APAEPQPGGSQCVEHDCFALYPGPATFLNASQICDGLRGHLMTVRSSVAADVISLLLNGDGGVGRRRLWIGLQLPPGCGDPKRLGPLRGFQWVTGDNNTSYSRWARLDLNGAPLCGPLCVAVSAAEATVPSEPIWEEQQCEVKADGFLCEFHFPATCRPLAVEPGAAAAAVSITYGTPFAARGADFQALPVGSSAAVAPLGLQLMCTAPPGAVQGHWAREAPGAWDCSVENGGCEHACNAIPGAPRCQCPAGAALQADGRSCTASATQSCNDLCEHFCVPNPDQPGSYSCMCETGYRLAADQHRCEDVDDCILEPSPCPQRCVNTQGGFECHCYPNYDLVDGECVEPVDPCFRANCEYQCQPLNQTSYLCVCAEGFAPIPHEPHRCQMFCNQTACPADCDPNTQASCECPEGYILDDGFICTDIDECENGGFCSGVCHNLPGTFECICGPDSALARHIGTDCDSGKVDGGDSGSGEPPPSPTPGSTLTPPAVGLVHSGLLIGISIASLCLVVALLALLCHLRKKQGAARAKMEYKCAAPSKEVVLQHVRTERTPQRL
Briefly: flow cytometry, HEK293T Thrombomodulin CD141 WT GFP, GFP-positive cells gated (R1).

The target in assay [3] is T5, CLEC14A wild type with a C terminal GFP tag (human, UniProt Q86T13 22-490).
T5 construct: Expressed in HEK293T cells; GFP-positive cells gated; also called WT CLEC14A; not shown: C-terminal GFP tag
T5 sequence: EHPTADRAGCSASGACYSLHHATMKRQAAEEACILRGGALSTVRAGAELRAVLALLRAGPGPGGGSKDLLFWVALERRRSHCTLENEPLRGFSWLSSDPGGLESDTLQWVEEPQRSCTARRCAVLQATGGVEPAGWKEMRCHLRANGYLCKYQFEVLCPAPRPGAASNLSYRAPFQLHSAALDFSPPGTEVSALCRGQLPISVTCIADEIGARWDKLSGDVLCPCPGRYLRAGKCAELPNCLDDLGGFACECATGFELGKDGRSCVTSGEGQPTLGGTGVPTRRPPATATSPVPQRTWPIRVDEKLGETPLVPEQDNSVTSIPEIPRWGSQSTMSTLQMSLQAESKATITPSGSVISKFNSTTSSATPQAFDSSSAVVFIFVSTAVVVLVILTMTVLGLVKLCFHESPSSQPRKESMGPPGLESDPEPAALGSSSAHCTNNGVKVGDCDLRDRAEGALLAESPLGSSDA
As to the kind of experiment: flow cytometry, HEK293T CLEC14A WT GFP, GFP-positive cells gated (R1); filled histogram is the control (files named IgG).

The target of the next assay is T6, Chimera 6.
T6 construct: GFP fusion; also called CLEC14A with SUSHI of CD141; Sushi of thrombomodulin
As to the kind of experiment: flow cytometry, HEK293T Chimera 6 GFP, GFP-positive cells gated (R1); filled histogram is the control (files named IgG).

Assay [4] deals with T7, MMRN2 overexpressed in HEK293T cells (human, UniProt Q9H8L6 23-949).
T7 construct: Used as cell lysate; also called full-length human MMRN2 with a His tag; hMMRN2; not shown: His tag (vector pHL-Avitag3)
T7 sequence: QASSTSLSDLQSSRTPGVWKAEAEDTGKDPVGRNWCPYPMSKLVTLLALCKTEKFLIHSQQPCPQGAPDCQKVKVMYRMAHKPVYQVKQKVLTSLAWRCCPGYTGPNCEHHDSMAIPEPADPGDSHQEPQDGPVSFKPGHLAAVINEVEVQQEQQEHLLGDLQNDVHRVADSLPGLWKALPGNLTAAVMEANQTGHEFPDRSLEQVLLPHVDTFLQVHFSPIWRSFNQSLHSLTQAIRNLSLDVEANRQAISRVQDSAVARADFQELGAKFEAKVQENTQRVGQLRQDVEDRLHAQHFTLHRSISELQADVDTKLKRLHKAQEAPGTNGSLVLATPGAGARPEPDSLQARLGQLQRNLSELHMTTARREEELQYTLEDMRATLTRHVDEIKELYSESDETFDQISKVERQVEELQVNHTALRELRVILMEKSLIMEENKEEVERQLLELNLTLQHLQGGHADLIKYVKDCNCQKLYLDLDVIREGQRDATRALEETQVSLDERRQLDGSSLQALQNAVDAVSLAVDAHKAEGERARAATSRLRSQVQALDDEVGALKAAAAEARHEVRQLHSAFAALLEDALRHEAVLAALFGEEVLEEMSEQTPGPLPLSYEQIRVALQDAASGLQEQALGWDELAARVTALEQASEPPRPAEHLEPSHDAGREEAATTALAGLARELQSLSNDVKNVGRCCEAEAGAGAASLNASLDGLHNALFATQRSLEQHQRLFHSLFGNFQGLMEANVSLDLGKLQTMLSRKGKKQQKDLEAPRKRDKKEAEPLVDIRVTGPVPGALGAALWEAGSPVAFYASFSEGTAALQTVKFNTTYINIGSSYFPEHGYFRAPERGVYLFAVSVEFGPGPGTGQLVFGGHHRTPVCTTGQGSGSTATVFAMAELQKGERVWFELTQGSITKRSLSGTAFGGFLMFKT
As to the kind of experiment: far Western blot of lysates of transfected HEK293T cells, probed with MMRN2 protein lysate. From the text:
HEK293T cells were mock transfected or transfected with pCS2 vectors containing CLEC14A wild type (WT) or constructs with each major domain deleted (Δ) with an N-terminal HA tag. Upon far western blotting with MMRN2 protein lysate, binding can be seen in all mutants except those missing the C-type lectin domain (CTLD) or the sushi domain. An anti-HA blot was included to show all mutant proteins were expressed.

In assay [5] the target is T7, MMRN2 overexpressed in HEK293T cells. Briefly: method for MMRN2 not described.
For assay [6], the target named is T8, human CLEC14A, full length (human, UniProt Q86T13 22-490).
T8 construct: also called CLEC14A on HUVECs (endogenous); CHO cells expressing full length human CLEC14A
T8 sequence: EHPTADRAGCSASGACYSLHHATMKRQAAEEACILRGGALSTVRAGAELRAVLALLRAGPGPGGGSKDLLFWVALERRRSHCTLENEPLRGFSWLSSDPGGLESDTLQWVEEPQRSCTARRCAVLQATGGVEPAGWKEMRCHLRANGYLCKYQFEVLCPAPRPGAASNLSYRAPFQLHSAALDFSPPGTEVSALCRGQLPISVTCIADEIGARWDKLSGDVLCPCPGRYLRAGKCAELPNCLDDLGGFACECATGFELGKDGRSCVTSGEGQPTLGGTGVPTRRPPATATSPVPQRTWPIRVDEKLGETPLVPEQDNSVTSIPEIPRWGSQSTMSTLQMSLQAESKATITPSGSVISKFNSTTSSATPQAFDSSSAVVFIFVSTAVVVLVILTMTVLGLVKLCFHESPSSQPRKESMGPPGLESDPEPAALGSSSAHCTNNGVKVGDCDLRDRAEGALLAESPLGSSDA
Briefly: fluorescent imaging of HUVECs treated with the drug conjugate of CRT3, 0 and 90 minutes by the legend. As to the method: HUVECs were treated with CRT-3 ADC and fluorescent imaging was carried out to determine the localisation of CRT-3 after 0 and 90 minutes. Further, the cytotoxicity was measured using a Cell Titre Glo luminescent cell viability assay and the results are shown in FIG. 18B. As described above, 1 million Lewis lung carcinoma cells were injected subcutaneously into the right flank of 2 mice and allowed to grow to a visible size. 1 mg/kg of CRT-3-ADC or B12-ADC (control) was administered through tail vein injections.

B1: CRT1 (antibody, IgG1, V domains shown)
VH: EVQLQQSGAELMKPGASVKISCKATGYTFSSYWIEWVKQRPGHGLEWIGEILPGSGSTNYNEKFKGKATFTADTSSNTAYMQLSSLTSEDSAVYYCARGGDYDEEYYVMDYWGQGTSVTV
VL: QIVLTQSPAIMSASPGEKVTMTCSASSSVSYMYWYQQKPGSSPRLLIYDTSNLASGVPVRFSGSGSGTSYSLTISRMEAEDAATYYCQQWSSYPLTFGAGTKLELKR
notes: also called C1; CR1
With B1, the binding result with murine CLEC14A-Fc was “binds”; in the assay with human CLEC14A-ECD-Fc it was “binds”; in the assay with Chimera 5, “no binding”; in assay [1], “no binding”; in assay [2] it was “no binding”; in assay [3], “binds”. Also, the binding result in the assay with Chimera 6 is given as “binds”.

B2: CRT4 (antibody, IgG1, V domains shown)
VH: QVQLQQSGAELMKPGASVKISCKATGYTFSSYWIEWVNRRPGHGLEWIGEILPGSGSTNYNEKFKGKATFTADTSSNTAYMQLSSLTSEDSAVYYCARGGDYDEEYYLMDYWGQGTTLTVSS
VL: QIVLTQSPAIMSASPGEKVTMTCSASSSVSYMYWYQQKPGSSPRLLIYDTSNLASGVPVRFSGSGSGTSYSLTISRMEAEDAATYYCQQWSSYPLTFGAGTKLEIKR
notes: also called C4
For B2, the binding result (in the assay with Chimera 5; in assay [1]; in assay [2]) was “no binding” throughout.

B3: CRT5 (antibody, IgG1, V domains shown)
VH: AEVQLQQSGAELMKPGASVKISCKATGYTFSSYWIEWVNQRPGHGLEWIGEILPGSGSTNYNEKFKGKATFTADTSSNTAYMQLSSLTSEDSAVYYCARGGDYDEEYYAMDYWGQGTSVTL
VL: QIVLTQSPAIMSASPGEKVTMTCSASSSVSYMYWYQQKPGSSPRLLIYDTSNLASGVPVRFSGSGSGTSYSLTISRMEAEDGATYYCQQWSSYPLTFGAGTKLELKR
notes: also called C5
Regarding B3, the binding result (in the assay with Chimera 5; in [1]; in assay [2]) was “no binding” each time.

B4: HA-CLEC14A (receptor)
chain: EHPTADRAGCSASGACYSLHHATMKRQAAEEACILRGGALSTVRAGAELRAVLALLRAGPGPGGGSKDLLFWVALERRRSHCTLENEPLRGFSWLSSDPGGLESDTLQWVEEPQRSCTARRCAVLQATGGVEPAGWKEMRCHLRANGYLCKYQFEVLCPAPRPGAASNLSYRAPFQLHSAALDFSPPGTEVSALCRGQLPISVTCIADEIGARWDKLSGDVLCPCPGRYLRAGKCAELPNCLDDLGGFACECATGFELGKDGRSCVTSGEGQPTLGGTGVPTRRPPATATSPVPQRTWPIRVDEKLGETPLVPEQDNSVTSIPEIPRWGSQSTMSTLQMSLQAESKATITPSGSVISKFNSTTSSATPQAFDSSSAVVFIFVSTAVVVLVILTMTVLGLVKLCFHESPSSQPRKESMGPPGLESDPEPAALGSSSAHCTNNGVKVGDCDLRDRAEGALLAESPLGSSDA
notes: also called CLEC14A wild type (WT) with an N-terminal HA tag; not shown: N-terminal HA tag
B4: the binding result in [4] is on record as “binds”.
Regarding B5, in [5], the binding result is on record as “no binding”.

B6: CRT3 (antibody, IgG1, V domains shown)
VH: EVQLQQSGTVLARPGASVKMSCKASGYTFTSYWMHWVKQRPGQGLEWIGAIYPGNSDTSYNQKFKGKAKLTAVTSTSTAYMELSSLTNEDSAVFYCTHYYGSDYAMDYWGQGTSVTV
VL: QIVLTQSPAIMSASLGERVTMTCTASSSVSSSYLHWYQQKPGSSPKLWIYSTSNLASGVPARFSGSGSGTSYSLTISSMEAEDAATYYCHQYHRSPRTFGGGTKLEIKR
notes: The VL entry ends with AAA from the cloning site; also called C3
Turning to B6, the binding result is “binds” with murine CLEC14A-Fc; “binds” with human CLEC14A-ECD-Fc; “no binding” in the assay with Chimera 5; “no binding” in [2]; “binds” in [6]; “binds” in assay [3]. Moreover, in the assay with Chimera 6, the binding result is given as “binds”.
